From patent US20050267061

## ATGGACGGG (double strand) [BVO 13A / MX1E target]
BVO 13A (synthetic)
  Kd: < 0.02 nM
MX1E (synthetic)
  Kd: 3.4 nM

## GAGGCTTGG (double strand) [VOP 29A-3 target]
VOP 29A-3 (synthetic)
  Kd: < 0.02 nM

## GCCGGGGAG (double strand) [USX 3A target]
USX 3A (synthetic)
  Kd: 0.06 nM

## GCTGGAGCA (double strand) [VOP 35A-10 target]
VOP 35A-10 (synthetic)
  Kd: < 0.02 nM

## GCTGGGGGC (double strand) [VOP 30A-4 target]
VOP 30A-4 (synthetic)
  Kd: < 0.02 nM

## GGDTGGGGG (double strand) [HP38 4A target]
HP38 4A (synthetic)
  Kd: 0.75 nM

## GGGGAGGAT (double strand) [VEGF 1B target]
VEGF 1B (synthetic)
  Kd: 2 nM

## GGGGGCGCT (double strand) [VOP 28A-2 target]
VOP 28A-2 (synthetic)
  Kd: < 0.02 nM

## GGGGGTGAC (double strand) [VOP 32 target]
VOP 32A-6 (synthetic)
  Kd: < 0.02 nM
VOP 32B-7 (synthetic)
  Kd: < 0.02 nM

## TGGGCAGAC (double strand) [HUM 19A target]
HUM 19A (synthetic)
  Kd: 0.02 nM

## TGGGGGTGG (double strand) [MTS 5A target]
MTS 5A (synthetic)
  Kd: 0.07 nM
